Source: patent publication US7132258B1, “Nucleic acid encoding vitamin D receptor related polypeptide” (University of Massachusetts, priority 1998, dated 2006)

Tests used:
Assay type in all cases: binding
Conditions in all cases: β-galactosidase ONPG assay, 1 μM ligand or vehicle
[1] = target: T1, TR (LBD) of hTRβ (Homo sapiens, UniProt P10828); assay: Yeast two-hybrid interaction with TR
T1 construct: TR (LBD) of hTRβ); expressed in transfected cells; host or cells: Saccharomyces cerevisiae Y190
T1 sequence (P10828 217-461 limits assumed): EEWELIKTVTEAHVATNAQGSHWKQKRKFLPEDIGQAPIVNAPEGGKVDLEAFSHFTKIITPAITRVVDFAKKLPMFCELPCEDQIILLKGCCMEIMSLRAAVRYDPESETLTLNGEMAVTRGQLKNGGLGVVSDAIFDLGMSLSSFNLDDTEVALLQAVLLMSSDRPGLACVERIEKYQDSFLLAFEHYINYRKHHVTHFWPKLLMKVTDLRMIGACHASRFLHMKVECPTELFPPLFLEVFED
T1 sequence (Q9Y6Q9 401-1204 E704Q partner limits assumed): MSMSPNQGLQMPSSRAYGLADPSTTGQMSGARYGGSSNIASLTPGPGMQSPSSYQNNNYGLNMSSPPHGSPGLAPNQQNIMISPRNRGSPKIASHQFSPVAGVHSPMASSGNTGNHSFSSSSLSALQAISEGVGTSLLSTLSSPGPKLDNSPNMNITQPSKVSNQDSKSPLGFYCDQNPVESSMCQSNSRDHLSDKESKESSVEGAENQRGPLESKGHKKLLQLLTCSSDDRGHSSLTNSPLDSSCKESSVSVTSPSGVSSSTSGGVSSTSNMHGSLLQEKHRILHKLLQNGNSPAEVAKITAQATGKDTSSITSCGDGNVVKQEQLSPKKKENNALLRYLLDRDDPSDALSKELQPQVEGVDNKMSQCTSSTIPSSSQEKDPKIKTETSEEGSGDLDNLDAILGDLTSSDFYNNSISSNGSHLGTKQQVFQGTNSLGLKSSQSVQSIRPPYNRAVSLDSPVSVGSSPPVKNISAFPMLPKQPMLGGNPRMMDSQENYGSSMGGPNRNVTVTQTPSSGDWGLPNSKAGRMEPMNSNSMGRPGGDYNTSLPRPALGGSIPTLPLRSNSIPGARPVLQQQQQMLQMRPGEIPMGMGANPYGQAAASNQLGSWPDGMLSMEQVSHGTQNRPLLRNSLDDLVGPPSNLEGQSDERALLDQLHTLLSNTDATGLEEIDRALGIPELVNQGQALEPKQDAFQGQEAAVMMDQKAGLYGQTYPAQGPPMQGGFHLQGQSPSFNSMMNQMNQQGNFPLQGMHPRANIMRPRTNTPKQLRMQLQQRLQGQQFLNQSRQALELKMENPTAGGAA
Protocol: (§1) The protein—protein interactions between RAC3 and several steroid/nuclear receptors were analyzed by the yeast two-hybrid system. The original two-hybrid clone, RAC3.1 in pGAD10 vector, was retransformed together with yeast expression vectors for Gal4 DBD fusion of selected hormone receptor genes into Y190 cells. The receptors used include RAR (full-length hRARα), RXR (full-length hRXRα), VDR (LBD of human Vitamin D receptor), PPAR (LBD of mPPARα), TR (LBD) of hTRβ), COUP (LBD of COUP-TFI). Three independent colonies from each transformation were selected and analyzed for expression of […] activities by liquid ONPG assay (FIG. 6) after treatment with 1 μM of corresponding ligands (closed bars), or with equal concentration of vehicle alone (open bars). […] The ligands used in these experiments were atRA, VitD3 (1,25-dihydroxyvitamin D3), and Wy (Wy 14,642). […] In the absence of ligand, RAC3 can interact with RAR and PPAR.

[2] = target: T2, VDR (LBD of human Vitamin D receptor) (Homo sapiens, UniProt P11473); assay: Yeast two-hybrid interaction with VDR
T2 construct: VDR (LBD of human Vitamin D receptor); expressed in transfected cells; host or cells: Saccharomyces cerevisiae Y190
T2 sequence (P11473 127-423 limits assumed): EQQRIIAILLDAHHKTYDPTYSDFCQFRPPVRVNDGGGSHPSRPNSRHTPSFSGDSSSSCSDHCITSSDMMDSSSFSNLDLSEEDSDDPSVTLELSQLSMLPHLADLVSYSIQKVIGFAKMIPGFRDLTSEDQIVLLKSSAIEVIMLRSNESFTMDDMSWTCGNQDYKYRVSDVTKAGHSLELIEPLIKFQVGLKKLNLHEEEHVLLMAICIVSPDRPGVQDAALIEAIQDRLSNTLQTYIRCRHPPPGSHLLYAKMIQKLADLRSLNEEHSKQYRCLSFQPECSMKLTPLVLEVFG
T2 sequence (Q9Y6Q9 401-1204 E704Q partner limits assumed): T1 sequence (Q9Y6Q9 401-1204 E704Q partner limits assumed)
Protocol: as §1

[3] = target: T3, PPAR (LBD of mPPARα) (Mus musculus, UniProt P23204); assay: Yeast two-hybrid interaction with PPAR
T3 construct: PPAR (LBD of mPPARα); expressed in transfected cells; host or cells: Saccharomyces cerevisiae Y190
T3 sequence (P23204 239-466 limits assumed): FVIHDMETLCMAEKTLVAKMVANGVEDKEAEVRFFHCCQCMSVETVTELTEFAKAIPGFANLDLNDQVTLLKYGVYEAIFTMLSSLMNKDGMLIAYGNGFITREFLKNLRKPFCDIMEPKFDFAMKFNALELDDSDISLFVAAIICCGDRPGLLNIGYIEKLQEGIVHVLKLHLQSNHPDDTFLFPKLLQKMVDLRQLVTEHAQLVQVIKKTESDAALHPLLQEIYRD
T3 sequence (Q9Y6Q9 401-1204 E704Q partner limits assumed): T1 sequence (Q9Y6Q9 401-1204 E704Q partner limits assumed)
Protocol: as §1

[4] = target: T4, RAR (full-length hRARα) (Homo sapiens, UniProt P10276); assay: Yeast two-hybrid interaction with RAR
T4 construct: RAR (full-length hRARα); expressed in transfected cells; host or cells: Saccharomyces cerevisiae Y190
T4 sequence (P10276 1-462): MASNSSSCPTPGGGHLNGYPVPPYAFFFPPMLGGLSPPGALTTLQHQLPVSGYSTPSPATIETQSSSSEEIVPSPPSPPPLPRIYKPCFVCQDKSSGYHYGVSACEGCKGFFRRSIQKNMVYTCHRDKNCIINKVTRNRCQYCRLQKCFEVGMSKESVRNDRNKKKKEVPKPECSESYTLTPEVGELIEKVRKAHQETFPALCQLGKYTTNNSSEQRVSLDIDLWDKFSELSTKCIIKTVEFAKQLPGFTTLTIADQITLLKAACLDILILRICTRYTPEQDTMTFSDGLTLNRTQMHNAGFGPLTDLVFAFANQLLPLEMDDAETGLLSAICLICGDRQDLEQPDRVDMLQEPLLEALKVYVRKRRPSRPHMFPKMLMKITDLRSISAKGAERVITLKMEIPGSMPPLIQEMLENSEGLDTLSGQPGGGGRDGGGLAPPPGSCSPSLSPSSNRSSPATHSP
T4 sequence (Q9Y6Q9 401-1204 E704Q partner limits assumed): T1 sequence (Q9Y6Q9 401-1204 E704Q partner limits assumed)
Protocol: as §1

In the case of “RAC3: transcriptional coactivator of steroid/nuclear receptors, protein of about 1417 amino acids (SEQ ID NO:2); RAC3.1 is the two-hybrid clone, amino acids 401–1204”, the “interaction with TR” value [1] is reported as “ligand-dependent manner”, the “interaction with VDR” value [2] is reported as “ligand-dependent manner” and the “interaction with PPAR” value [3] is reported as “ligand-dependent manner”. The “interaction with RAR” value [4] was “Ligand treatment enhanced these interactions”.
